{"source": "IntAct's records for PubMed 30774623", "target": "agrl1_mouse Adgrl1 (UniProt Q80TR1)", "sequence (Q80TR1 whole entry)": "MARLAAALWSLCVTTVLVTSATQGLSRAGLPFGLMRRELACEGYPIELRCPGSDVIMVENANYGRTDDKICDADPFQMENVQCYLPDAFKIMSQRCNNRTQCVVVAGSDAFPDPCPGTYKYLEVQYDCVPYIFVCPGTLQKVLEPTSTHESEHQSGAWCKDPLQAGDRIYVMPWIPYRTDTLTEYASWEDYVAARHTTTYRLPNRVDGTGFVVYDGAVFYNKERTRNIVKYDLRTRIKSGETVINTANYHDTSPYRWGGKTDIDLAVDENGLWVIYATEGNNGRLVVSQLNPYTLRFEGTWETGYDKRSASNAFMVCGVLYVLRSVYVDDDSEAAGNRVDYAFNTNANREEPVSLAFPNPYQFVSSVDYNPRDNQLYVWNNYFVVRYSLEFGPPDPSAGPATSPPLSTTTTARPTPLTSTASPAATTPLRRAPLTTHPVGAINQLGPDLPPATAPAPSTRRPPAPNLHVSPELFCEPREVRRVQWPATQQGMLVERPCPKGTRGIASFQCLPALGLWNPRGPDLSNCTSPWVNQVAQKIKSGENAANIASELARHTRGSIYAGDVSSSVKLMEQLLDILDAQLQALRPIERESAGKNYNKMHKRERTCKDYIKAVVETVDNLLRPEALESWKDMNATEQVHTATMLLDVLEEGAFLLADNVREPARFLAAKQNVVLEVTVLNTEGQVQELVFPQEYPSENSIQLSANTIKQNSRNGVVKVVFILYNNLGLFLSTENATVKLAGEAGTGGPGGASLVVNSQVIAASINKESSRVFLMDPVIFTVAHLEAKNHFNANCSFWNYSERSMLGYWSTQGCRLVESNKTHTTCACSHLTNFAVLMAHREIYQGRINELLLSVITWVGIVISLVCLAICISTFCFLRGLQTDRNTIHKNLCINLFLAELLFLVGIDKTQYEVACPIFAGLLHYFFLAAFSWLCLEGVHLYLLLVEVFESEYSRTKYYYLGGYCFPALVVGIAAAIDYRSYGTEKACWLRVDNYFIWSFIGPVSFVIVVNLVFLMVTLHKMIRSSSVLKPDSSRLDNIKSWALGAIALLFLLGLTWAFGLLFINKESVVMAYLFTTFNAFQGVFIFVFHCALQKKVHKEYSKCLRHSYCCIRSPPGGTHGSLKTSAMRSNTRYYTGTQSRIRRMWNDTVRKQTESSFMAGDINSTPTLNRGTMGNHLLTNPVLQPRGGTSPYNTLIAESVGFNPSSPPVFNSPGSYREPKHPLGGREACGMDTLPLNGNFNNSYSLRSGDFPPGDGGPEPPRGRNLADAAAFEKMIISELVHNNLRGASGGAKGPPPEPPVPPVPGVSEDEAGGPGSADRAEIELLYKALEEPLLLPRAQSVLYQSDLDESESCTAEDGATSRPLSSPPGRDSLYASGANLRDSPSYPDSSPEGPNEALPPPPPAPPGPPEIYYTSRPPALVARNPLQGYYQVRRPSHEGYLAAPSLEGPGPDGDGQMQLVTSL"}
{"substance": "Teneurin-1 (Mus musculus), Q9WTS4 R37K", "values": [{"measurement": "effect of a mutation on the interaction", "value": "with no effect"}]}
